We go through 2 molecules from article PMC1780049, “Functional analysis of Arabidopsis WRKY25 transcription factor in plant defense against Pseudomonas syringae”.

This data set has as its target T1, WRKY25 (Arabidopsis, UniProt O22921 1-393).
T1 sequence: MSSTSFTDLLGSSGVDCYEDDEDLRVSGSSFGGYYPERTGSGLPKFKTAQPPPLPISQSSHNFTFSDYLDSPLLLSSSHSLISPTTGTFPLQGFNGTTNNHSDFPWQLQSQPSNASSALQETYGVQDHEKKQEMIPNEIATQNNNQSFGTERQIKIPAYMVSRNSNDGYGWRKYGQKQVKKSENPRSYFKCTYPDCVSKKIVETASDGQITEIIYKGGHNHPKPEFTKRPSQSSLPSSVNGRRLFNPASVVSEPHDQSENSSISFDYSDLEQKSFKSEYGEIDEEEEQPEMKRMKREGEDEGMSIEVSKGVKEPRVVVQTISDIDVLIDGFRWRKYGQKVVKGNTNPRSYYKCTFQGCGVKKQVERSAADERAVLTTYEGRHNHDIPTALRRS
Nature of the data set: EMSA; poly(dIdC) 5 ug; 12 ul nuclear extraction buffer (25 mM HEPES/KOH pH 7.5, 40 mM KCl, 0.1 mM EDTA, 10% glycerol, 1 mM DTT, PMSF), 5 ug poly(dIdC), 1 ug protein, 2 ng labelled dsDNA; room temperature 30 min; 10% PAGE in 0.5x TBE at 4 C. The following applies: protein: recombinant, tags: His-tagged, pET32a (EcoRI/XhoI) vector fusion, (Klenow labelled, ~10^5 cpm/ng). For orientation: A gel shift assay detects complexes by their altered migration in electrophoresis.

Substitutions are numbered along the chain they refer to.

B1: Pchn5 (dsDNA)
DNA 1: GGAACTTGACCATCCGTTGACCGGGCTGCAGGAATTCG
DNA 2: CGAATTCCTGCAGCCCGGTCAACGGATGGTCAAGTTCC
Regarding B1, the binding result is given as “binds”.

B2: mPchn5 (dsDNA)
DNA 1: B1 DNA 1 with C10A, C21A
DNA 2: B1 DNA 2 with G18T, G29T
With B2, the binding result is reported as “no binding”.
